Test results reported in US20140066368A1.
Bridge positions count the residues as written; N and C are the ends. Ends that are not written are not given here.

Target: amylin receptor (membrane-bound, rat basal forebrain membranes containing the nucleus accumbens and surrounding regions) (rat)
Test: competition with ^125I Bolton-Hunter amylin on rat basal forebrain membranes, filtration

| Molecule | IC50 [nM] |
| --- | --- |
| ^1Ser-h-Amylin (peptide) | 0.033 |
| ^28Pro-h-Amylin (peptide) | 0.015 |
| ^1Ala-h-Amylin (peptide) | 0.148 |
| ^29Pro-h-Amylin (peptide) | 0.064 |
| CNTATCATQRLANFLVHSSNNFGPILPSTNVGSNTY [des-^1Lys^25,28Pro-h-Amylin] | 0.085 |
| CNTATCATQRLANFLVRSSNNFGPILPPTNVGSNTY [des-^1Lys^18Arg^25,28,29Pro-h-Amylin] | 0.021 |
| CNTATCATQRLANFLVRSSNNFGPILPSTNVGSNTY [des-^1Lys^18Arg^25,28Pro-h-Amylin] | 0.082 |
| CNTATCATQRLANFLVHSSNNFGPILPPTNVGSNTY [des-^1Lys^25,28,29Pro-h-Amylin] | 0.014 |
| KCNTATCATQRLANFLVHSSNNFGPILPSTNVGSNTY [^25,28Pro-h-Amylin] | 0.026 |
| KCNTATCATQRLANFLVRSSNNFGPILPPTNVGSNTY [^18Arg^25,28,29Pro-h-Amylin] | 0.021 |
| KDNTATKATQRLANFLVHSSNNFGAILSSTNVGSNTY (lactam 2-7; ends not checked) [^2,7Cyclo-[^2Asp,^7Lys]-h-Amylin] | 0.31 |
| KCNTATCATQRLANFLVRSSNNFGPILPSTNVGSNTY [^18Arg^25,28Pro-h-Amylin] | 0.032 |
| KCNTATCATQRLANFLVHSSNNFGPVLPPTNVGSNTY [^25Pro^26Val^28,29Pro-h-Amylin] | 0.018 |
| KCNTATCATQRLANFLVHSSNNFGPILPPTNVGSNTY-NH2 (disulfide 2-7) [^25,28,29Pro-h-Amylin] | 0.01 |
